The values that follow come from publication PMC8224240 (Molecular cell, 2020).

The experiment has as its target T1, human Smc6 with Strep-tag II (StreptagII-Smc6) (human, UniProt Q96SB8 1-1091).
T1 sequence (looked up): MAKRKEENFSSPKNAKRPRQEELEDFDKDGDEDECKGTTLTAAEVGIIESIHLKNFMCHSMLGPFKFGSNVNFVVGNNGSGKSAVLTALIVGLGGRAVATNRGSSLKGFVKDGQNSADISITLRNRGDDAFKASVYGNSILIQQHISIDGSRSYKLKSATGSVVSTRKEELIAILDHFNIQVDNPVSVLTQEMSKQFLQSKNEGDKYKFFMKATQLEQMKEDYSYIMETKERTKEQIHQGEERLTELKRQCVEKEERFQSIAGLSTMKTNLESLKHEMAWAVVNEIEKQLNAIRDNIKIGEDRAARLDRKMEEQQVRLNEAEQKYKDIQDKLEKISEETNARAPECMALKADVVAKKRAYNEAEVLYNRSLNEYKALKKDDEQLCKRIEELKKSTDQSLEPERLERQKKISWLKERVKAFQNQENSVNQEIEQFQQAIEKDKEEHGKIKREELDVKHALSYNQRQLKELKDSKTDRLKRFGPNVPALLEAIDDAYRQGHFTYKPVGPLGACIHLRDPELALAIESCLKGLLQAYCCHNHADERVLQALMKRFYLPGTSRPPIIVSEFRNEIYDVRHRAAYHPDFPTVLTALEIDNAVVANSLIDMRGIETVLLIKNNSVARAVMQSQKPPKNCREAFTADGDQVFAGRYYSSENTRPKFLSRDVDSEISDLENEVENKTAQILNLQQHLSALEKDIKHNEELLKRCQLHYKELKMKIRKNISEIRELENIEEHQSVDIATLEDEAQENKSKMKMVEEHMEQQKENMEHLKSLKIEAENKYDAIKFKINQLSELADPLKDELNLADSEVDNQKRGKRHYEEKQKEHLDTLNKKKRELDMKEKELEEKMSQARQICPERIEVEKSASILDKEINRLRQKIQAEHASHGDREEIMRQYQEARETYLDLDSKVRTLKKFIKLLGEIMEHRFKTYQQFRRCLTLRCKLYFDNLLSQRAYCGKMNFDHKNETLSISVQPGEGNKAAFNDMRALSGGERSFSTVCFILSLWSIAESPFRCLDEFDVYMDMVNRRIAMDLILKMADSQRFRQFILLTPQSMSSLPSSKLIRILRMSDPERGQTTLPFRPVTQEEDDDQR
Nature of the experiment: tandem affinity co-purification.

B1: human Smc5 with poly-histidine tag (His-Smc5), subunit of the Smc5/6 dimer (natural protein, UniProt Q8IY18 1-1101, looked up)
chain: MATPSKKTSTPSPQPSKRALPRDPSSEVPSKRKNSAPQLPLLQSSGPFVEGSIVRISMENFLTYDICEVSPGPHLNMIVGANGTGKSSIVCAICLGLAGKPAFMGRADKVGFFVKRGCSRGMVEIELFRASGNLVITREIDVAKNQSFWFINKKSTTQKIVEEKVAALNIQVGNLCQFLPQDKVGEFAKLSKIELLEATEKSIGPPEMHKYHCELKNLREKEKQLETSCKEKTEYLQKMVQRNERYKQDVERFYERKRHLDLIEMLEAKRPWVEYENVRQEYEEVKLVRDRVKEEVRKLKEGQIPVTCRIEEMENERHNLEARIKEKATDIKEASQKCKQKQDVIERKDKHIEELQQALIVKQNEELDRQRRIGNTRKMIEDLQNELKTTENCENLQPQIDAITNDLRRIQDEKALCEGEIIDKRRERETLEKEKKSVDDHIVRFDNLMNQKEDKLRQRFRDTYDAVLWLRNNRDKFKQRVCEPIMLTINMKDNKNAKYIENHIPSNDLRAFVFESQEDMEVFLKEVRDNKKLRVNAVIAPKSSYADKAPSRSLNELKQYGFFSYLRELFDAPDPVMSYLCCQYHIHEVPVGTEKTRERIERVIQETRLKQIYTAEEKYVVKTSFYSNKVISSNTSLKVAQFLTVTVDLEQRRHLEEQLKEIHRKLQAVDSGLIALRETSKHLEHKDNELRQKKKELLERKTKKRQLEQKISSKLGSLKLMEQDTCNLEEEERKASTKIKEINVQKAKLVTELTNLIKICTSLHIQKVDLILQNTTVISEKNKLESDYMAASSQLRLTEQHFIELDENRQRLLQKCKELMKRARQVCNLGAEQTLPQEYQTQVPTIPNGHNSSLPMVFQDLPNTLDEIDALLTEERSRASCFTGLNPTIVQEYTKREEEIEQLTEELKGKKVELDQYRENISQVKERWLNPLKELVEKINEKFSNFFSSMQCAGEVDLHTENEEDYDKYGIRIRVKFRSSTQLHELTPHHQSGGERSVSTMLYLMALQELNRCPFRVVDEINQGMDPINERRVFEMVVNTACKENTSQYFFITPKLLQNLPYSEKMTVLFVYNGPHMLEPNTWNLKAFQRRRRRITFTQPS
By stoichiometry N is commonly meant the number of molecules, sites or subunits per partner or assembly. With B1, the “stoichiometry N” value came out at 1.
